{"source": "patent US20250002943", "tested_on": "Bxb1 integrase (serine recombinase) (Mycobacterium phage Bxb1?)", "assay": "cell_activity"}
{"substance": "Bxb1 attB site on circularised mNeonGreen cargo", "values": [{"measurement": "activity (% mNeonGreen-positive cells)", "setting": "attB on cargo recombined with genomic attP in hiPSCs, 0.01% without cargo and Bxb1 plasmids", "result": 11.3}]}
{"substance": "Bxb1 attP site (58 nt, integrated at ACTR10 via ssODN)", "values": [{"measurement": "activity (% mNeonGreen-positive cells)", "setting": "attP x attB recombination in hiPSCs, all components delivered with Cas9 RNP, 0.38% without attP ssODN template", "result": 11.3}]}
